Measured values as given in the supplement of paper PMC10126150.
± gives the standard deviation of the averaged measurements.

Test system: ATP
Experiment: switch fluorescence ratio, 500 uM ATP over buffer (Cy3 cluster intensity, sum of 5 cycles each) (fold (ratio)); higher = stronger signal-on switching upon ATP binding; sequences stand for … in TCGTCGGCAGCGTCAGATGTGTATAAGAGACAGTTTTTTTTTTTTTTTTTTTTTTTTT…TC
Settings: aptamer strand: ATP DNA aptamer (quencher-CACCTGGGGGAGTATTGCGGAGGAAGG + anchor), 100 nM annealed; ATP concentration: 500 uM
Summary of the method: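 Five buffer/ATP imaging cycles were run on Cy3-labelled switching-strand clusters on a modified Illumina MiSeq flow-cell, with NaOH stripping and re-annealing between cycles. In each cycle, clusters annealed to 100 nM quencher-labelled ATP aptamer were imaged in selection buffer, then after 15 min with 500 uM ATP at 22 °C. Per cluster, the fluorescence ratio is summed target-cycle over summed buffer-cycle Cy3 intensity, averaged per switch-domain sequence. Only clusters within 100-1000 RFU were kept.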
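Note: ATP exposure 15 min at 22 °C before imaging.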

Point of comparison: GAGTATTATA, switch fluorescence ratio 1 ± 0.025. Against it:
- GAGGAAGGAA — within error, 1.04 ± 0.062
- GAGGAAGTAT — within error, 0.978 ± 0.0024
- GAGGAAGTCG — within error, 0.9961 ± 0.0055
- GAGGACGGGG — within error, 1.01 ± 0.011
- GAGGAGAACG — within error, 0.949 ± 0.049
- GAGGAGAGGT — the same, 1 ± 0.015
- GAGGAGGGGC — within error, 1.02 ± 0.054
- GAGGATCGGG — within error, 0.992 ± 0.023
- GAGGATGAGG — lower, 0.954 ± 0.0017
- GAGGATGGTT — within error, 0.964 ± 0.04
- GAGGATTAGC — within error, 0.99 ± 0.036
- GAGGCAGACT — higher, 1.23 ± 0.019
- GAGGCAGCGA — higher, 1.3 ± 0.016
- GAGGCCGGGG — within error, 0.9956 ± 0.0026
- GAGGCGGATG — within error, 0.997 ± 0.028
- GAGGCGTTGC — within error, 1.06 ± 0.05
- GAGGCTATCT — higher, 1.07 ± 0.0035
- GAGGCTTAAG — within error, 1.01 ± 0.019
- GAGGGAAAGG — within error, 1.02 ± 0.052
- GAGGGAGGCA — within error, 0.994 ± 0.019
- GAGGGAGGGT — within error, 1.02 ± 0.032
- GAGGGATACA — within error, 0.99 ± 0.043
- GAGGGCATGA — within error, 0.993 ± 0.074
- GAGGGCATTT — within error, 0.985 ± 0.02
- GAGGGCCGCA — higher, 1.05 ± 0.011
- GAGGGCCGTG — within error, 0.933 ± 0.043
- GAGGGGAATT — within error, 0.983 ± 0.014
- GAGGGGACTT — within error, 1.09 ± 0.13
- GAGGGGCAGG — within error, 1.02 ± 0.074
- GAGGGGCCGG — within error, 0.972 ± 0.057
- GAGGGGCTGT — within error, 0.981 ± 0.038
- GAGGGGGCCA — within error, 1.02 ± 0.027
- GAGGGGGGGT — within error, 1.08 ± 0.34
- GAGGGGGTCT — within error, 1.01 ± 0.064
- GAGGGGGTTG — within error, 1.01 ± 0.048
- GAGGGGTCCT — within error, 1.24 ± 0.39
- GAGGGGTGAC — within error, 0.979 ± 0.021
- GAGGGGTGGT — within error, 0.987 ± 0.029
- GAGGGGTTTT — within error, 1.01 ± 0.04
- GAGGGTAGCG — within error, 0.96 ± 0.059
- GAGGGTATAG — within error, 1.02 ± 0.085
- GAGGGTTGGG — within error, 1.06 ± 0.045
- GAGGGTTGTT — within error, 0.997 ± 0.019
- GAGGTAAGGG — within error, 0.998 ± 0.029
- GAGGTAATGT — higher, 1.039 ± 0.0025
- GAGGTACGCT — within error, 1.01 ± 0.021
- GAGGTACTTG — within error, 0.975 ± 0.039
- GAGGTAGATA — within error, 1.03 ± 0.046
- GAGGTCAGGT — within error, 1.01 ± 0.021
- GAGGTCGGCA — within error, 1.02 ± 0.011
- GAGGTGAGAG — within error, 1.02 ± 0.058
- GAGGTGAGGG — the same, 1 ± 0.057
- GAGGTGCAGG — within error, 0.9932 ± 0.008
- GAGGTGCGGG — within error, 0.99 ± 0.023
- GAGGTGCGGT — within error, 0.975 ± 0.049
- GAGGTGGGGA — within error, 0.9826 ± 0.0055
- GAGGTGGTGC — within error, 0.966 ± 0.072
- GAGGTGGTGG — within error, 0.998 ± 0.036
- GAGGTTATCA — within error, 1.01 ± 0.013
- GAGGTTGACA — within error, 1.03 ± 0.017
- GAGGTTGGAG — the same, 1 ± 0.00098
- GAGGTTGGCA — within error, 0.994 ± 0.01
- GAGGTTTAGG — within error, 0.986 ± 0.042
- GAGGTTTGCG — within error, 0.965 ± 0.028
- GAGGTTTTTA — within error, 0.986 ± 0.027
- GAGGTTTTTG — within error, 0.994 ± 0.032
- GAGTAAAAAG — within error, 0.99 ± 0.014
- GAGTAAATTG — within error, 0.987 ± 0.019
- GAGTAACGGT — within error, 1.03 ± 0.027
- GAGTAACTGT — within error, 0.966 ± 0.016
- GAGTAAGAGT — within error, 1.0175 ± 0.00091
- GAGTAATTGT — within error, 0.9975 ± 0.0042
- GAGTACGAGT — within error, 1.0098 ± 0.001
- GAGTACTTTG — within error, 0.9847 ± 0.0015
- GAGTAGAGTG — within error, 0.957 ± 0.026
- GAGTAGCGGT — within error, 1.01 ± 0.026
- GAGTAGGAGG — within error, 0.974 ± 0.051
- GAGTAGGGGA — within error, 0.97 ± 0.055
- GAGTATAAGC — within error, 0.9844 ± 0.0069
- GAGTATGAAG — within error, 1.01 ± 0.031
- GAGTATGCCC — within error, 1.02 ± 0.039
- GAGTCCAGGG — within error, 1.21 ± 0.27
- GAGTCGCCTG — within error, 0.991 ± 0.037
- GAGTGAAATG — within error, 1.02 ± 0.023
